system: K4 kissing-loop RNA reporter; test: apparent KD of K4 kissing-loop reporter; higher = weaker reporter binding; settings: Eterna round: R107; input ligand: theophylline 20 uM
Experimental: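 RNA-MaP round R107: designed RNA switches with theophylline, tryptophan, arginine or FMN aptamers are transcribed on-chip within common flanks. They are titrated with a labelled K4 kissing-loop RNA reporter in RNA-MaP buffer (100 mM Tris pH 7.5, 80 mM KCl, 4 mM MgCl2), without ligand or with the indicated ligand. Median apparent KD per design.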
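Note: bound reporter read as fluorescence of individual clusters on recovered sequencing chips by microscopy, with normalized cluster intensities fitted with a binding model.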

| Sequence | apparent KD of K4 kissing-loop reporter |
| --- | --- |
| UUCUUGAUGGAAACAUCGAGGAUUACUGAUACCAGUAUCGAUAGAUACCCUUGGCAGCAGAAUCAGUAAUCACGAGUGAUGUUCG [Ex Theophylline A K4 6] | 583 nM |
| UGUAUGGACUGAAGGAGCGGUAGAUAAACUGAGUGAUGUUCGGCAAAUAAAGGCGCAAGCCACCAGGUAGGUCGCAGUCCAUACU [KL-SSArg B1] | 236 nM |
| UGGAGUUGACGAAAAGUCAACUCCUGAGAAGGAGCGGACGAAAGUCCAGGUAGGUCGCUCACUACCAGUGAUGUUGGUACUAAAA | 66.6 nM |
| CGUGGUGCUCGCCAGCUGUGCGAGCGGUGGGAGGAUAUGUCGCGAGACAGAAGGCCCAGUGAUGUUGGGCAGGCUCGUAGAUCAA [Orbemaed] | 133 nM |
| CAGAACUUGUAUACAGGGUAUGUAAGAGAUACCAGUCAAAUUAAAGACCCUUGGCAGCUCAGGCGAGUGAUGUUCGCAGGCUAAC [Exclusion Theophylline A GF 18] | 116 nM |
| GACUCAUGUAGAAGGAGCGUCAGAAGCUACAGACAUGAGUGAUGUUCAUGUUAGUUGAUUUGACAGGUAGGUCGCUACAGCAGGA [KL-SSArg B15 #analogue] | 283 nM |
| UGGAGUUGACGAAAAGUCAACUCCUGAGAUACCAGUGACGAAAGUCACCCUUGGCAGCUCACUGCCAGUGAUGUUGGUUUAUAAA [#OpenEnded 2] | 266 nM |
| UGAUUUAACUGAAGGAGCGGCAAGAGAGAAGGAAAUAUAGUGAUGUUAUAUAAGAGAGAGAGCCAGGUAGGUCGCAGAGGGAGGA [ExArgB.E] | 178 nM |
| AGGUCACUACUACAGUGAUGUUGUGGAGAGCAGGAUAUGCAGAAAUGCAGAAGGGCUCGCUCUCAGUGACCGAAUGAAACAUUCA [Omei KL FMN A SS A v8] | 566 nM |
| CAAACGGGUUGGCUUGGAGACUGCAGACGCAAGGAUAUCGCGAAGACGAGAAGGUGCGGGCCUGGUAGUGAUGUUACAGUUUGGU [theeternabot_sameState_KL_FMN_A_21] | 367 nM |
| AAGCAGUCCCUCGAAGCCAUCGAAGAUGGGCGAGGACCGGUACGGCCGCCACUCGGAGUGAUGUUCCGAAGACUGCAAAAUAAAA [MatMod 3 - Jieux - Exclusion - Tryptophan A] | 273 nM |

same assay, conditions: Eterna round: R107; input ligand: tryptophan 2.4 mM

| Sequence | apparent KD of K4 kissing-loop reporter |
| --- | --- |
| UGUGGAGAAUAUGAUACCAGCAGUGAGAGAGAGGAAGUAUAGUGAUGUUAUAUGAGAGAAUGCCCUUGGCAGCAUAAGAAGAAGG [SSTheophylB.D] | 186 nM |
| UCUUGCGGCGCAGGAUAUCCGUCUGUCUCCUGCGUCAUUCUGCAGUGAUGUUGCAGGUGACGGAUAGGAGAAGGGCGAACGUACA [Diinonorce] | 112 nM |
| AAGUCAUAGGCAGGAUAUGCAUAGUAAUAAGGCAAUAUCUACGUAUAGAGUGAUGUUUUGUACCAGGCAGAAGGGCUACAUCAGU [FMN B Excl V9 (+4A/C)] | 424 nM |
| AAUAGGGAGUGAUGUUCCCUCACUUAUGAUACCAGUGCCAUCGGACACCCUUGGCAGCAUACGGGCAGUGAUGUUGUUCUUGGAA [Exclusion Theophylline A GF 25] | 119 nM |
| GAAUAAUAUGUACCAGUGAUGUUGGUACAACGAGGACCGGUACGGCCGCCACUCGGAUACGAGUGGAUACAUCACUGACCAUUCG [(H1)-(H2)-(Trp1)-(Trp2)-(T)'-(H)'-(T)''_Design9] | 252 nM |
| GCGCGUCAUGUCAGCGGUGACACUGUCGAUACCAGCGCCGGAAGGCGCCCUUGGCAGCGACGUGCUGGAGUGAUGUUCCAGCGUG [#2 Exclusion - Theophylline A Attempt #26 (HarryS)] | 157 nM |
| CCCUCACGAGUGAUGUUCGUAGGGUACAGUCAGGAUAUCAUGCGGUUGAGAAGGGACAGAGAAGGCGGCGACGGGUUGCUUAUCU [Atenus] | 218 nM |
| GAUUCAGUGAUGUUGGAAGGCGAGCGGGAUACCAGCCAAGACUCAGGCCCUUGGCAGCCCACAUAUCCCACGUAGAUAGUAGCUC [Same State - Theophylline A (Freestyle 13)] | 142 nM |
| CGGUACGUCGCAGGAUAUGUAAAUGUAAGUGAUGUUUACAUACCAUGCUGGCGAAAGCCAGCAUGGACAGAAGGGCGACGUACCG | 506 nM |
| AAUUUGUAUUUAUUCUUUAAAUGUUCAGAAGGAGCGUGAAUUAUCACAGGUAGGUCGCUGAGCUAGUGAUGUUAGCUAUACACUA [#01 K4 Arginine A Exclusion] | 91 nM |
| GUACGCUCCCGAGUGAUGUUCGGUAAUCGCUAGGAUAUCGCUUUUGCGAGAAGGAGCGGAAUGAGGAAACUCGUUCUGAGUGUAC [FMN A 26] | 338 nM |
| CCAAGGUGCUUCUGUUCAGUGAUGUUGGUACGAGGACCGGUACGGCCGCCACUCGCCGUACAAUCGCUAGUUAAUCAUUGGCAAG [theeternabot_exclusion_KL_Trp_A_40] | 256 nM |
| AGUGGACGUGUCUAGAGUGAUGUUCCGGAUACCAGACACGAAAGUGUCCCUUGGCAGCCGGAGUGAUGUUCUGGCGUUCACUAAA [Omei KL Theo A Exc B v6] | 440 nM |
| AGACUACCACACUGUCAAUAGACAGUGUACUAGGAUAUGCUGAUAAGCAGAAGGAGUGAUGUUCCUCGGUAGUCAAUAAAAUAAU [FmnAX 13 U28+C67] | 276 nM |
| CCUAUCUCAUACGAUACCAGUCUAUUAAAACGAGUGAUGUUCGAAUAUUUGCCAUAUAAUGACCCUUGGCAGCGUAUGGGAUAGG [Ex Theophylline B K4 9] | 190 nM |
| UGUGUACCGGGAAGGAGCGUGAAUGAGAAUGGAUAUAGUGAUGUUAUAUAUACGAACGAAUCGCAGGUAGGUCGCCCGGAUCCCU [SSArgB.Y] | 345 nM |
| AGUACGGACGCGGCCGCCACUCAGAAGAAGACGGUAGUGAUGUUACUGAUGGUGAGAACAAUAAAGAGGACCGGGUGUCGUGCAA [#06 K4 Tryptophan B Same State] | 304 nM |
| UGUUAUGUAUCAGGAUAUUAGUGAUGUUUGUUUAUGUUAGUGAUGUUGAUAUUUGUUUUAUGUAUUUAAGAAGGGAUUGAGAAGU [ffcfxmullin] | 49.3 nM |
| GAUUCAGUGAUGUUGGAAGGCGAGCGGGAUACCAGCCAAGACUCAGGCCCUUGGCAGCCCACAUAUCCCAGGUAGAUAGUAGCUC [Same State - Theophylline A (Freestyle 12)] | 132 nM |
| UGUAUGGACUGAAGGAGCGGUAUAUAAACUGAGUGAUGUUCGGCAGAUAAAGGCGCAAGCCACCAGGUAGGUCGCAGUCCAUACU [KL-SSArg B2] | 342 nM |
| AUUUUUUUAUCAGGAUAUUAGUGAUGUUUGUUUUUGUUAGUGAUGUUGAUAUUUGUUUUAUGUAUUUAAGAAGGGAUUGAGAUGU [sfsmullin] | 42.4 nM |
| GGUAGCAUGGCGGCCGCCACUUCAUAUGGAGUGAUGUUCCAGCAUCUUAUAAGACUGAGGUGAGGAAGGACCGGGCCAUGCUACC | 189 nM |

| Sequence | apparent KD of K4 kissing-loop reporter |
| --- | --- |
| AUUAUAUAGGCGGCCGCCACUAGUGAUGUUAGUGACUUUAUGAAAACAUAAAGAAUAAAAUAAUAUAGGACCGGGCCAUAAUAUU [AstrosExTryB#5] | 432 nM |
| UAGAGUCACAAGACAGUGAUGUUGUCUACUGAGGAUAUCAUGAAUAUGAGAAGGCAGUGUUGGAGGUCUCUAACAACAGACUCUG [FMN A SS t3] | 280 nM |
| UUUCUACCGGGAAGGAGCGUGAAUGAUAAUGGAUAUAGUGAUGUUAUAUAUACGAACGAAUCGCAGGUAGGUCGCCCGGAUGACU [SSArgB.T] | 486 nM |
| AAUAUAGUGAUGUUAUAUAAGAAGGAGUUACGAGGACCGGUACGGCCGCCACUCGAAACGAGUGAGGGCUUGGGAGAUUGGGCCC [SSTryptA.I] | 264 nM |
| GCCGUAGUUGGAAGGAGCGUGAAUGGCCUCUAUCCAAAGUGAUGUUUUGUUGAAGACUGUUCACAGGUAGGUCGCCAACUACGGC [#09 K4 Arginine B Same State] | 132 nM |
| AAUAAUGAUGUUUAGGAAAGUAAAAUGGAAGGAGCGUGCGAAAGCACAGGUAGGUCGCCAGUGAUGUUGGAACCUGAGCAUCAAA [#SwitchBubble 19 #K4Late] | 757 nM |
| UGUCAUUGGUCGGCCGCCACUCCAUAAAGAGUGAUGUUCUGAAAGACGGAUCGAAAGAUCUGUCGGAGGACCGGGACCGAUGACU [FiskerMod 3 - Jieux - Same State - Tryptophan B] | 237 nM |
| GGACCACCAGUGAUGUUGGAGAUAAACUCCAAGGAUAUGACGAAAGUCAGAAGGUGGUAAUAAGACGUCAAAGACGUCAGGUCCA [FmnA 20 #SwitchBubble #K4Early] | 178 nM |
| UAUGUACACGGGUAGUUGUACAUCGAGGAAGGAGCGUGCGCAGGCACAGGUAGGUCGCCUCAGCGCACGAGUGAUGUUCGUGGGC [Xexegeus] | 247 nM |
| UGGCGAGUGAUGUUCGUUGUUGUAGUGUGCCGAGGACCGGUACGGCCGCCACUCGGGUUGGUUGUUGUUGUUGUUGUUGUUGUUG [whbob_SS_tryp_A] | 76.1 nM |
| UUCUUGAUGGAAACAUCGAGGAUUACUGAUACCAGUAUCGAUAGAUACCCUUGGCAGCAGAAUCAGUAAUCACGAGUGAUGUUCG [Ex Theophylline A K4 6] | 460 nM |
| UGUAUGGACUGAAGGAGCGGUAGAUAAACUGAGUGAUGUUCGGCAAAUAAAGGCGCAAGCCACCAGGUAGGUCGCAGUCCAUACU [KL-SSArg B1] | 205 nM |
| UGGAGUUGACGAAAAGUCAACUCCUGAGAAGGAGCGGACGAAAGUCCAGGUAGGUCGCUCACUACCAGUGAUGUUGGUACUAAAA | 203 nM |
| CGUGGUGCUCGCCAGCUGUGCGAGCGGUGGGAGGAUAUGUCGCGAGACAGAAGGCCCAGUGAUGUUGGGCAGGCUCGUAGAUCAA [Orbemaed] | 116 nM |
| CAGAACUUGUAUACAGGGUAUGUAAGAGAUACCAGUCAAAUUAAAGACCCUUGGCAGCUCAGGCGAGUGAUGUUCGCAGGCUAAC [Exclusion Theophylline A GF 18] | 99 nM |
| GACUCAUGUAGAAGGAGCGUCAGAAGCUACAGACAUGAGUGAUGUUCAUGUUAGUUGAUUUGACAGGUAGGUCGCUACAGCAGGA [KL-SSArg B15 #analogue] | 229 nM |
| UGGAGUUGACGAAAAGUCAACUCCUGAGAUACCAGUGACGAAAGUCACCCUUGGCAGCUCACUGCCAGUGAUGUUGGUUUAUAAA [#OpenEnded 2] | 130 nM |
| UGAUUUAACUGAAGGAGCGGCAAGAGAGAAGGAAAUAUAGUGAUGUUAUAUAAGAGAGAGAGCCAGGUAGGUCGCAGAGGGAGGA [ExArgB.E] | 137 nM |
| AGGUCACUACUACAGUGAUGUUGUGGAGAGCAGGAUAUGCAGAAAUGCAGAAGGGCUCGCUCUCAGUGACCGAAUGAAACAUUCA [Omei KL FMN A SS A v8] | 838 nM |
| CAAACGGGUUGGCUUGGAGACUGCAGACGCAAGGAUAUCGCGAAGACGAGAAGGUGCGGGCCUGGUAGUGAUGUUACAGUUUGGU [theeternabot_sameState_KL_FMN_A_21] | 254 nM |
| AAGCAGUCCCUCGAAGCCAUCGAAGAUGGGCGAGGACCGGUACGGCCGCCACUCGGAGUGAUGUUCCGAAGACUGCAAAAUAAAA [MatMod 3 - Jieux - Exclusion - Tryptophan A] | 185 nM |
